The term Kd denotes a measure of binding affinity in units of concentration.

Some results are limits rather than exact numbers.

Consider two substances from publication PMC3545873.

Assay [1] concerns the target StrepTactin. As to the kind of experiment: optical tweezers (single-molecule pulling); STN covalently coupled to polystyrene beads; tST-DNA-biotin held by its biotin on NTV-coated beads; tST-STN linkage formed in situ; stretched and relaxed at 50 nm/s to just beyond DNA overstretching at about 65 pN until the connection broke; connections that broke below 20 pN disregarded; N = 111.

The target of assay [2] is StrepTag II. The note with it: cited from earlier work.

Sequence of Streptavidin (P22629 25-183): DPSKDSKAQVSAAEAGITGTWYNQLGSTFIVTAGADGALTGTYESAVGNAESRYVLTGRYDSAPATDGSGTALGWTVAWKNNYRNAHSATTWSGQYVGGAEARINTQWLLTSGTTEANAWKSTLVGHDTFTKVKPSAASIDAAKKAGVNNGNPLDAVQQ

With “tST-DNA-biotin (tandem of two StrepTag II peptides linked to 2553 bp dsDNA, biotinylated at the other DNA end)”, in assay [1], the average rupture force was > 65 pN, the fraction of times the tether survives overstretching (first pull) turned out to be 77% and the fraction of times the tether survives overstretching (subsequent pulls) is 87%.

With Streptavidin (from UniProt P22629), the Kd in assay [2] was 72 µM.
